Some results are limits rather than exact numbers.

This note sets out measurements from US20240199740A1 (Ablynx, published 2024).

Assay [1] deals with T1, recombinant human CD123 protein (R&D Systems, 301-R3/CF) (human, UniProt P26951 19-305).
T1 construct: Bought recombinant His-tagged extracellular domain of human CD123; also called recombinant CD123; in house biotinylated-CD123 recombinant protein; not shown: His tag of the bought protein
T1 sequence: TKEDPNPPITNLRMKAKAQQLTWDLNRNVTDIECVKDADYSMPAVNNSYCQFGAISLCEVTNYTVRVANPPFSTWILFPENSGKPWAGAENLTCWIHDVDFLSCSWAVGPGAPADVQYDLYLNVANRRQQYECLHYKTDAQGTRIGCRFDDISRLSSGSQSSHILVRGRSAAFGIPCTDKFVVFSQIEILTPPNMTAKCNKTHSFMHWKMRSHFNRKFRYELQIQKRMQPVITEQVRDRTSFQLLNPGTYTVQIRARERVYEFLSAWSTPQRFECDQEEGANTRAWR
Description: SPR (ProteOn XPR36), CD123 immobilized.

Assay [2] deals with T2, human CD123 expressed on cells (human, UniProt P26951 19-378).
T2 construct: the cell line is named under assay; also called huCD123; IL-3Rα
The experiment in a line: flow cytometry, Alexa647-labelled Nanobody, MOLM-13 cells. For orientation: In flow cytometry, cells or beads pass a laser one at a time.

Assay [3] deals with T3, cynomolgus CD123 expressed on HEK Flp-In cells (cynomolgus).
T3 construct: EHH61867.1; also called cyCD123; cyno CD123
T3 chain: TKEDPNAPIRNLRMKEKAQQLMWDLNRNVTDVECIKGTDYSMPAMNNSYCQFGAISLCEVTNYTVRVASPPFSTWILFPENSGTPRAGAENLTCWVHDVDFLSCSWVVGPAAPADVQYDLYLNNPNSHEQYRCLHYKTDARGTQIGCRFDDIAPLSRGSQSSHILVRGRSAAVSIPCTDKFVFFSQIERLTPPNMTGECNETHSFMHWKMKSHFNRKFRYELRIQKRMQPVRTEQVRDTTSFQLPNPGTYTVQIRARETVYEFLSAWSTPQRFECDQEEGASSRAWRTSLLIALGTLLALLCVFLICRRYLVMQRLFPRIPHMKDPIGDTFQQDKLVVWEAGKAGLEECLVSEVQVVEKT
The experiment in a line: flow cytometry, Alexa647-labelled Nanobody, HEK Flp-In cynomolgus CD123 cells.

Assay [4] deals with T2, human CD123 expressed on cells. The experiment in a line: flow cytometry competition, CHO Flp-In human CD123 cells, competitor A0110056A10-Alexa647 (0.5 nM).
In assay [5] the target is T1, recombinant human CD123 protein (R&D …). The experiment in a line: competition ELISA, coated antibody 7G3 as competitor, 4 nM biotinylated recombinant CD123. On the technique in general: In an ELISA, binding on a coated surface is turned into a signal by an enzyme label.
The target of assay [6] is T2, human CD123 expressed on cells. The experiment in a line: flow cytometry, MOLM-13 cells.
Assay [7] has the same target. Description: flow cytometry, KG1a cells.
Assay [8] shares this target. The experiment in a line: flow cytometry, Alexa647-labelled Nanobody, CHO Flp-In human CD123 cells.
Assay [9] has the same target. The experiment in a line: flow cytometry, Alexa647-labelled Nanobody, MOLM-13 cells. This is another data set of the same source.
In assay [10] the target is T3, cynomolgus CD123 expressed on HEK …. The experiment in a line: flow cytometry, Alexa647-labelled Nanobody, HEK Flp-In cyCD123 transfected cells.
Assay [11] shares this target. Description: flow cytometry competition, HEK Flp-In cyCD123 cells, competitor A0110056A10-Alexa647 (0.9 nM).
The target in assay [12] is T2, human CD123 expressed on cells. The experiment in a line: flow cytometry, Alexa647-labelled Nanobody, CHO Flp-In human CD123 cells. The source holds these as a separate data set.
Assay [13] has the same target. The experiment in a line: flow cytometry competition, CHO Flp-In huCD123 cells, competitor A0110056A10-Alexa647 (0.9 nM).
Assay [14] has the same target. The experiment in a line: flow cytometry competition, MOLM-13 cells, competitor APC-labelled antibody 7G3.
Assay [15] shares this target. The experiment in a line: flow cytometry, Alexa647-labelled Nanobody, CHO Flp-In huCD123 transfected cells.
Assay [16] has the same target. Description: flow cytometry competition, MOLM-13 cells, competitor A0110056A10-Alexa647 (0.4 nM).
Assay [17] shares this target. The experiment in a line: flow cytometry competition, CHO Flp-In human CD123 cells, competitor APC-labelled antibody 7G3.
Assay [18] shares this target. Description: flow cytometry competition, MOLM-13 cells, competitor A0110056A10-Alexa647 (0.7 nM).
For assay [19], the target named is cynomolgus TCR/CD3 expressed on cells (cynomolgus). The experiment in a line: cell-based or functional assay.
Assay [20] concerns the target T2, human CD123 expressed on cells. The experiment in a line: cell-based or functional assay.
Assay [21] shares this target. Description: cell-based or functional assay. This is another data set of the same source.
Assay [22] shares this target. The experiment in a line: cell-based or functional assay. This is another data set of the same source.
For assay [23] the target is unchanged. Description: cell-based or functional assay. This is another data set of the same source.
Assay [24] has the same target. The experiment in a line: cell-based or functional assay. This is another data set of the same source.
Assay [25] has the same target. The experiment in a line: cell-based or functional assay. The source holds these as a separate data set.
Assay [26] deals with T4, cynomolgus TCR/CD3 expressed on cells (cynomolgus).
T4 construct: whole, on cells; Native complex with CD3 chains; the cell type is named under assay or readout; also called cyno TCR/CD3; CD3/TCR expressed on HSC-F
Description: flow cytometry competition, HSC-F cells, competitor T017000099 (500 nM).

For assay [27], the target named is T2, human CD123 expressed on cells. Description: cell-based or functional assay. This is another data set of the same source.
Assay [28] has as its target T3, cynomolgus CD123 expressed on HEK …. The experiment in a line: cell-based or functional assay.
In assay [29] the target is T4, cynomolgus TCR/CD3 expressed on cells. The experiment in a line: cell-based or functional assay. This is another data set of the same source.
Assay [30] shares this target. Description: cell-based or functional assay. This is another data set of the same source.
In assay [31] the target is T2, human CD123 expressed on cells. Description: cell-based or functional assay. The source holds these as a separate data set.
For assay [32] the target is unchanged. Description: cell-based or functional assay. The source holds these as a separate data set.
Assay [33] has as its target T3, cynomolgus CD123 expressed on HEK …. Description: flow cytometry, HEK Flp-In cyCD123 transfected cells.
Assay [34] concerns the target T2, human CD123 expressed on cells. Description: flow cytometry, CHO Flp-In huCD123 transfected cells.

B1: A0110056A10 (VHH)
VHH: EVQLVKSGGGLVQAGGSLRLSCAASGITSKINDMGWYRQTPGNYREWVASITATGTTNYRDSVKGRFTISRDNAKSTVYLQMNSLKPEDTTVYYCNTFPPISNFWGQGTLVTVSS
notes: Monovalent anti-CD123 Nanobody; also called A0110PMP056A10; A0110056A10-Alexa647; not shown: C-terminal triple Flag, His6 tag
Consider B1, for which the Kd (commonly the free concentration of one partner at which half of the binding sites on the other are occupied at equilibrium, for simple one-to-one binding) in [1] was determined as 1.5 nM. For the same molecule, in [1], the koff (in general, a measure of how fast the partners let go of each other) was 0.00079 s⁻¹. Further, the on-rate constant (kon) (as a rule, the second-order rate constant of association) in assay [1] turned out to be 530000 M⁻¹ s⁻¹. The concentration giving a half-maximal response (EC50 (read off the curve)) (as a rule, the concentration at which the effect is half-maximal) was about 0.5 nM in assay [2]; about 3 nM in [3]; about 3 nM in [8]; about 0.7 nM in assay [9]; about 1 nM in assay [12]. In addition, the IC50 (usually the point on the concentration scale where inhibition reaches its midpoint) turned out to be 6.7 nM in assay [4]; 3.1 nM in [5]; 7 nM in [11]; 1.9 nM in assay [13]; 1.1 nM in assay [14]; 1.1 nM in [16]. The IC50 was 6.5 nM in assay [17] and 1.4 nM in [18]. Further, the EC50 (as a rule, the concentration that produces a half-maximal response) in assay [6] is 0.63 nM; in assay [7], 0.5 nM; in assay [10] it was 2.48 nM; in assay [15] it was 0.974 nM.

B2: T017000139 (bispecific antibody)
chain: DVQLVESGGGLVQPGGSLRLSCVASGDVHKINFLGWYRQAPGKEREKVAHISIGDQTDYADSAKGRFTISRDESKNMVYLQMNSLKPEDTAVYFCRAFSRIYPYDYWGQGTLVTVSSGGGGSGGGGSGGGGSGGGGSGGGGSGGGGSGGGGSEVQLVESGGGLVQAGGPLRLSCAASGRTFSSYVMGWFRQAPGKEREFVAAIYWSNGKTQYTDSVKGRFTISGDNAKNTVYLQMNSLNPEDTAVYYCVADKDETGFRTLPIAYDYWGQGTLVTVSSGGGGSGGGGSGGGGSGGGGSGGGGSGGGGSGGGGSEVQLVESGGGLVQAGGSLRLSCAASGITSKINDMGWYRQTPGNYREWVASITATGTTNYRDSVKGRFTISRDNAKSTVYLQMNSLKPEDTTVYYCNTFPPISNFWGQGTLVTVSSA
notes: Multispecific Nanobody polypeptide expressed in Pichia; also called T013700139
With B2, in assay [19], the “% lysis, redirected cyno T cell mediated killing of KG1a cells, flow cytometry” value was 42% and the “EC50 (M), redirected cyno T cell mediated killing of KG1a cells, flow cytometry” value was found to be 2.6e-11 M. Besides, in assay [20], the “EC50 (M), IFN-γ secretion by cynomolgus T cells during killing of CD123 transfected adherent target cells” value is 2.3e-09 M and the “EC50 (M), IFN-γ secretion by human T cells during killing of CD123 transfected adherent target cells” value worked out at 1e-09 M. In addition, in assay [21], the “% lysis, redirected human T cell mediated killing of MOLM-13 cells, flow cytometry, E:T 10:1” value is 29% and the “EC50 (M), redirected human T cell mediated killing of MOLM-13 cells, flow cytometry, E:T 10:1” value is 2e-11 M. In assay [22], the “EC50 (M), human IL-6 secretion during human T cell mediated killing of MOLM-13 cells” value was found to be 2.3e-11 M. In addition, in assay [23], the “EC50 (M), redirected cynomolgus T cell mediated killing of CD123 positive KG1a cells, flow cytometry, E:T 10:1” value was 1.7e-11 M and the “EC50 (M), redirected human T cell mediated killing of CD123 positive KG1a cells, flow cytometry, E:T 10:1” value turned out to be 8.1e-11 M. Besides, the “IC50 (M), redirected human T cell mediated killing of human CD123 transfected CHO Flp-In cells, xCELLigence, E:T 15:1, 50 h” value in [24] stood at 2.4e-10 M. Also, in assay [25], the “% lysis, redirected human T cell mediated killing of KG1a cells, flow cytometry, E:T 10:1” value came out at 27% and the “EC50 (M), redirected human T cell mediated killing of KG1a cells, flow cytometry, E:T 10:1” value stood at 1.1e-10 M. For the same molecule, the IC50 in assay [26] turned out to be 640 nM. Besides, in assay [27], the “EC50 (M), redirected cynomolgus T cell mediated killing of CD123 positive MOLM-13 cells, flow cytometry, Experiment 1” value came out at 6e-11 M; the “EC50 (M), redirected cynomolgus T cell mediated killing of CD123 positive MOLM-13 cells, flow cytometry, Experiment 2” value was 3.1e-11 M; the “EC50 (M), redirected human T cell mediated killing of CD123 positive MOLM-13 cells, flow cytometry, Experiment 2” value is 3e-11 M. Further, the “IC50 (M), redirected cynomolgus T cell mediated killing of cynomolgus CD123 transfected HEK Flp-In cells, xCELLigence, E:T 15:1, 80 h” value in [28] is 1.1e-11 M. In assay [11], the IC50 is 11 nM. Also, the “EC50 (M) of CD25 upregulation on cynomolgus T cells during redirected killing of MOLM-13 cells, 72 h” value in assay [29] came out at 6e-11 M. The molecule also registered an IC50 in assay [13] of 3.3 nM. This molecule also came in with an IC50 in [16] of 3.7 nM. In addition, in assay [30], the “% lysis, redirected cyno T cell mediated killing of MOLM-13 cells, flow cytometry, E:T 10:1” value came to 55% and the “EC50 (M), redirected cyno T cell mediated killing of MOLM-13 cells, flow cytometry, E:T 10:1” value worked out at 1.1e-11 M. Moreover, the “EC50 (M), human IL-6 secretion during human T cell mediated killing of CD123 transfected adherent target cells” value in assay [31] was found to be 4.8e-10 M. In assay [32], the “EC50 (M), human IFN-γ secretion during human T cell mediated killing of KG1a cells” value was 3.2e-11 M and the “EC50 (M), human IFN-γ secretion during human T cell mediated killing of MOLM-13 cells” value was found to be 3.4e-10 M.

B3: A0110055F03 (VHH)
VHH: EVQLVESGGGLVQAGGPLRLSCAASGRTFSSYVMGWFRQAPGKEREFVAAIYWSNGKTQYTDSVKGRFTISGDNAKNTVYLQMNSLNPEDTAVYYCVADKDETGFRTLPIAYDYWGQGTQVTVSS
notes: Monovalent anti-CD123 Nanobody; also called A0110PMP055F03; A011005F03; not shown: C-terminal triple Flag, His6 tag
Consider B3, for which, in assay [1], the Kd stood at 160 nM. The koff in [1] is 0.0039 s⁻¹. Besides, the on-rate constant (kon) in [1] is 25000 M⁻¹ s⁻¹. The EC50 in assay [33] was 2.53 nM; in assay [6], over 100 nM; in [7], over 100 nM; in assay [34] it was 5.94 nM. The values for the IC50 in assay [14] and in assay [18] were 480 nM and over 100 nM, respectively.
